{
  "source": "patent US20230136301A1",
  "about": "“Corticosteriod Reduction in Treatment with Anti-CD38 Antibody” (Janssen Biotech, Inc., priority 2021, published 2023)",
  "molecules": {"B1": {"name": "rHuPH20: recombinant hyaluronidase having the amino acid sequence of SEQ ID NO: 22 (protein, listed as Homo sapiens)", "chain": "LNFRAPPVIPNVPFLWAWNAPSEFCLGKFDEPLDMSLFSFIGSPRINATGQGVTIFYVDRLGYYPYIDSITGVTVNGGIPQKISLQDHLDKAKKDITFYMPVDNLGMAVIDWEEWRPTWARNWKPKDVYKNRSIELVQQQNVQLSLTEATEKAKQEFEKAGKDFLVETIKLGKLLRPNHLWGYYLFPDCYNHHYKKPGYNGSCFNVEIKRNDDLSWLWNESTALYPSIYLNTQQSPVAATLYVRNRVREAIRVSKIPDAKSPLPVFAYTRIVFTDQVLKFLSQDELVYTFGETVALGASGIVIWGTLSIMRSMKSCLLLDNYMETILNPYIINVTLAAKMCSQVLCQEQGVCIRKNWNSSDYLHLNPDNFAIQLEKGGKFTVRGKPTLEDLEQFSEKFYCSCYSTLSCKEKADVKDTDAVDVCIADGVCIDAFLKPPMETEEPQIFY"}},
  "key": {"[1]": {"tested_on": "patients with multiple myeloma", "conditions": "COLUMBA, cited from earlier work"}, "[2]": {"tested_on": "patients with RRMM", "test": "PAVO Part 1: DARA MD safety and efficacy"}, "[3]": {"tested_on": "patients with RRMM", "conditions": "in vivo"}, "[4]": {"tested_on": "patients with RRMM", "conditions": "DARA MD 1,800 mg; PAVO Part 1; median follow-up 8.3 months; cited from earlier work"}, "[5]": {"tested_on": "patients with RRMM", "test": "PAVO Part 3: immunogenicity (anti-daratumumab and anti-rHuPH20 antibodies)", "type": "in vivo, human", "experimental": "For evaluation of immunogenicity, anti-daratumumab antibodies in serum and anti-rHuPH20 antibodies in plasma were assessed pre-dose on Cycle 1 Day 1, Cycle 1 Day 15, Cycle 2 Day 22, Cycle 4 Day 1 and 4- and 8-weeks post-treatment. The presence of anti-daratumumab and/or anti-rHuPH20 antibodies was assessed for classification as neutralizing antibodies."}},
  "note": "“Also recorded” adds a separate entry of the source.",
  "data": [
    {"molecule": "DARA IV: daratumumab 16 mg/kg given by intravenous infusion", "values": [
      {"measurement": "Median duration of response", "setting": "[1]; follow-up 7.5 months", "value": "not reached"},
      {"measurement": "Overall response rate", "setting": "[1]; median follow-up 7.5 months", "value": 37, "unit": "%"}
    ]},
    {"molecule": "DARA MD: mix-and-deliver formulation of daratumumab (20 mg/mL) and rHuPH20 given subcutaneously by syringe pump", "values": [
      {"measurement": "Anemia, TEAE of Grade >3", "setting": "[2]", "value": 15.6, "unit": "%"},
      {"measurement": "Serious TEAEs in SOC General disorders and administration site conditions", "setting": "[2]", "value": 6.7, "unit": "%"},
      {"measurement": "TEAEs in SOC General disorders and administration site conditions", "setting": "[2]", "value": 71.1, "unit": "%"},
      {"measurement": "Serious TEAEs in SOC Infections and infestations", "setting": "[3]", "value": 17.8, "unit": "%"},
      {"measurement": "TEAEs in SOC Infections and infestations", "setting": "[3]", "value": 71.1, "unit": "%"},
      {"measurement": "ORR", "setting": "[4]", "value": 42.2, "unit": "%"}
    ]},
    {"molecule": "daratumumab: human IgG1/κ anti-CD38 monoclonal antibody; heavy chain SEQ ID NO:12, light chain SEQ ID NO:13", "values": [
      {"measurement": "Patients positive for anti-daratumumab antibodies", "setting": "[5]; daratumumab immunogenicity-evaluable n=41", "value": "no patient tested positive; also recorded: no patients evaluable for daratumumab immunogenicity were positive"}
    ]},
    {"molecule": "B1", "values": [
      {"measurement": "Patients positive for treatment-emergent anti-rHuPH20 antibodies", "setting": "[5]; 1-week taper", "value": "1 (9.1%) n (%)"},
      {"measurement": "Patients positive for treatment-emergent anti-rHuPH20 antibodies", "setting": "[5]; 2-week taper", "value": "3 (20.0%) n (%)"},
      {"measurement": "Patients positive for treatment-emergent anti-rHuPH20 antibodies", "setting": "[5]; 3-week taper", "value": "6 (40.0%) n (%)"},
      {"measurement": "Neutralizing anti-rHuPH20 antibodies", "setting": "[5]; all cohorts", "value": "None of the anti-rHuPH20 antibodies were neutralizing antibodies"}
    ]}
  ]
}
